Experimental data from patent US20190359693A1 (Janssen / Centocor, published 2019).

Legend:
[1] = molecular target: HA of B/Harbin/7/94 (Yamagata) (influenza B virus); experiment: cell-based or functional assay
[2] = molecular target: HA of B/Massachusetts/02/12 (Yamagata) (influenza B virus); experiment: cell-based or functional assay
HA of B/Lee/40 = HA of B/Lee/40 (influenza B virus, UniProt P03460 16-552); experiment: cell-based or functional assay
[3] = molecular target: HA of B/Malaysia/2506/04 (Victoria) (influenza B virus); experiment: cell-based or functional assay
[4] = molecular target: HA of B/Harbin/7/94 (Yamagata) (influenza B virus); experiment: cell-based or functional assay; remark: listed apart in the source
[5] = molecular target: HA of H5N1 A/Vietnam/1194/04 (influenza A virus); experiment: cell-based or functional assay
HA of H7N7 A/PR8 H7N7-NY = HA of H7N7 A/PR8 H7N7-NY (influenza A virus); experiment: cell-based or functional assay
[6] = molecular target: HA of H10N3 A/Common Teal/MPH11/08 (influenza A virus); experiment: cell-based or functional assay
[7] = molecular target: HA of H3N2 A/Johannesburg/33/94 (influenza A virus); experiment: cell-based or functional assay
[8] = molecular target: HA of H5N2 A/Eurasian Wigeon/MPF461/07 (influenza A virus); experiment: cell-based or functional assay
HA of H3N2 A/Fukui/45/04 = HA of H3N2 A/Fukui/45/04 (influenza A virus); experiment: cell-based or functional assay
[9] = molecular target: HA of H7N9 A/Shanghai/2/13 (influenza A virus); experiment: cell-based or functional assay
[10] = molecular target: HA of H1N1 A/Solomon Islands/3/2006 (IVR 145) (influenza A virus); experiment: cell-based or functional assay
[11] = molecular target: HA of H7N7 A/Northern Shoveler/MPF518/08 (influenza A virus); experiment: cell-based or functional assay
[12] = molecular target: HA of H2N2 A/WF/HK/MPU3156/05 (influenza A virus); experiment: cell-based or functional assay
[13] = molecular target: HA of H4N1 A/Northern Pintail/MPB1368/06 (influenza A virus); experiment: cell-based or functional assay
[14] = molecular target: HA of H6N1 A/Eurasian Wigeon/MPG1884/09 (influenza A virus); experiment: cell-based or functional assay
HA of H1N1 A/HK/54/98 = HA of H1N1 A/HK/54/98 (influenza A virus); experiment: cell-based or functional assay
[15] = molecular target: HA of H4 A/WF/HK/MPA892/06 (influenza A virus); experiment: cell-based or functional assay
HA of H3N2 A/Aichi/2/68 = HA of H3N2 A/Aichi/2/68 (influenza A virus, UniProt P03437 17-566); experiment: cell-based or functional assay
[16] = molecular target: HA of H1N1 A/Christchurch/16/10 (influenza A virus); experiment: cell-based or functional assay
HA of H3N2 A/HK/1/68 [17] = molecular target: T1, HA of H3N2 A/HK/1/68 (influenza A virus, UniProt Q91MA7 17-530); experiment: cell-based or functional assay
[18] = molecular target: HA of H10N7 A/Chick/Germany/N/49 (influenza A virus); experiment: cell-based or functional assay
[19] = molecular target: HA of H9N2 A/Ck/HK/SSP176/09 (influenza A virus); experiment: cell-based or functional assay
[20] = molecular target: T2, HA of H7N7 A/Netherlands/219/2003 (influenza A virus, UniProt P36346 19-563); experiment: cell-based or functional assay
[21] = molecular target: HA of B/Florida/04/2006 (Yamagata) (influenza B virus); experiment: cell-based or functional assay
HA of H1N1 A/WSN/33 = HA of H1N1 A/WSN/33 (influenza A virus, UniProt P03454 18-565); experiment: cell-based or functional assay
[22] = molecular target: HA of H5N1 A/Indonesia/5/05 (influenza A virus); experiment: cell-based or functional assay
[23] = molecular target: HA of H10N8 A/Jiangxi/346/2013 (influenza A virus); experiment: cell-based or functional assay
[24] = molecular target: HA of H1N2 A/Env/HK/MPU3156/05 (influenza A virus); experiment: cell-based or functional assay
[25] = molecular target: HA of H3N2 A/Victoria/210/09 (influenza A virus); experiment: cell-based or functional assay
HA of H3N2 A/Perth/16/09 = HA of H3N2 A/Perth/16/09 (influenza A virus); experiment: cell-based or functional assay
[26] = molecular target: HA of H9N2 A/Great Cormorant/MP2934/04 (influenza A virus); experiment: cell-based or functional assay
[27] = molecular target: HA of H7N9 A/Shanghai/1/13 (influenza A virus); experiment: cell-based or functional assay
HA of H7N9 A/Anhui/1/13 = HA of H7N9 A/Anhui/1/13 (influenza A virus); experiment: cell-based or functional assay
[28] = molecular target: HA of H2N2 A/AnnArbor/23/57 (influenza A virus); experiment: cell-based or functional assay
[29] = molecular target: HA of H2N2 A/Guiyang/1/57 (influenza A virus); experiment: cell-based or functional assay
[30] = molecular target: HA of H4N6 A/Great Cormorant/MPB1683/06 (influenza A virus); experiment: cell-based or functional assay
[31] = molecular target: HA of H11N9 A/Northern Pintail/MPC2085/07 (influenza A virus); experiment: cell-based or functional assay
[32] = molecular target: HA of H6N8 A/Eurasian Wigeon/MPD411/07 (influenza A virus); experiment: cell-based or functional assay
[33] = molecular target: HA of H7N7 A/Common Teal/MPF139/07 (influenza A virus); experiment: cell-based or functional assay
[34] = molecular target: HA of H9N2 A/HK/466419/09 (influenza A virus); experiment: cell-based or functional assay
[35] = molecular target: HA of H14N5 A/Mallard/Astrakhan/263/1982 (influenza A virus); experiment: cell-based or functional assay
[36] = molecular target: HA of H10N9 A/Northern Shoveler/MPE2531/08 (influenza A virus); experiment: cell-based or functional assay
[37] = molecular target: HA of H5N2 A/Eurasian Wigeon/HK/MPF333/07 (influenza A virus); experiment: cell-based or functional assay
[38] = molecular target: HA of H2N2 A/Env/HK/MPU3156/05 (influenza A virus); experiment: cell-based or functional assay
[39] = molecular target: HA of H8N4 A/Eurasian Wigeon/MPH571/08 (influenza A virus); experiment: cell-based or functional assay
[40] = molecular target: HA of H1N1 A/Mississippi/03/01 274H (influenza A virus); experiment: cell-based or functional assay
[41] = molecular target: HA of H6N1 A/Taiwan/2/2013 (influenza A virus); experiment: cell-based or functional assay
[42] = molecular target: HA of H12N5 A/Env/MPK659/09 (influenza A virus); experiment: cell-based or functional assay
[43] = molecular target: HA of H8N2 A/Env/MPJ1258/09 (influenza A virus); experiment: cell-based or functional assay
HA of H3N2 A/HK/1/68 [44] = molecular target: T1, HA of H3N2 A/HK/1/68; experiment: BLI steady state
[45] = molecular target: T2, HA of H7N7 A/Netherlands/219/2003; experiment: AlphaLISA competition vs CR9114

B1: SD1084 (VHH)
VHH: EVQLVESGGGLVQPGGSLKLSCAASGFTFSTSWMYWLRQAPGKGLEWVSVINTDGGTYYADSVKDRFTISRDNAKDTLYLQMSSLKSEDTAVYYCAKDWGGPEPTRGQGTQVTVSS
**Q.** For B1, which VNA titer [1] is on record?
**A.** Its VNA titer is 240 nM.

**Q.** What about the VNA titer [2] of the same binder?
**A.** The VNA titer was 40 nM.

**Q.** What about the VNA titer (HA of B/Lee/40) of the same binder?
**A.** The VNA titer was greater than 1000 nM.

**Q.** What about the VNA titer [3] of the same binder?
**A.** The VNA titer was 34.9 nM.

**Q.** What about the hemagglutination inhibition titer [4] of the same binder?
**A.** The hemagglutination inhibition titer was 1.1 µg/mL.

**Q.** And the hemagglutination inhibition titer [5]?
**A.** Its hemagglutination inhibition titer is greater than 50 µg/mL.

B2: SD1038 (VHH)
VHH: EVQLVESGGGLVQPGGSLRLSCAVSISIFDIYAMDWYRQAPGKQRDLVATSFRDGSTNYADSVKGRFTISRDNAKNTLYLQMNSLKPEDTAVYLCHVSLYRDPLGVAGGMGVYWGKGALVTVSS
notes: llama sdAb
**Q.** B2 was tested. Which VNA titer (HA of H7N7 A/PR8 H7N7-NY) did it give?
**A.** The VNA titer was 80.6 nM.

**Q.** And the VNA titer [6]?
**A.** The VNA titer was 301 nM.

**Q.** And the VNA titer [7]?
**A.** Its VNA titer is 443 nM.

**Q.** And the VNA titer [8]?
**A.** The VNA titer was 18.8 nM.

**Q.** And the VNA titer (HA of H3N2 A/Fukui/45/04)?
**A.** Its VNA titer is 632 nM.

**Q.** And the VNA titer [9]?
**A.** Its VNA titer is 239 nM.

**Q.** What about the VNA titer [10] of the same binder?
**A.** The VNA titer was 4.1 nM.

**Q.** What about the VNA titer [11] of the same binder?
**A.** Its VNA titer is 441 nM.

**Q.** And the VNA titer [12]?
**A.** The VNA titer was 31.4 nM.

**Q.** What about the VNA titer [13] of the same binder?
**A.** The VNA titer was 485 nM.

**Q.** What about the VNA titer [14] of the same binder?
**A.** Its VNA titer is 16.2 nM.

**Q.** And the VNA titer (HA of H1N1 A/HK/54/98)?
**A.** The VNA titer was 16.5 nM.

**Q.** What about the VNA titer [15] of the same binder?
**A.** Its VNA titer is greater than 1000 nM.

**Q.** And the VNA titer (HA of H3N2 A/Aichi/2/68)?
**A.** The VNA titer was 127 nM.

**Q.** What about the VNA titer [16] of the same binder?
**A.** The VNA titer was 2.6 nM.

**Q.** And the VNA titer (HA of H3N2 A/HK/1/68 [17])?
**A.** Its VNA titer is 40.2 nM.

**Q.** And the VNA titer [18]?
**A.** Its VNA titer is 469 nM.

**Q.** And the VNA titer [19]?
**A.** Its VNA titer is 90.8 nM.

**Q.** And the VNA titer [20]?
**A.** Its VNA titer is 181 nM.

**Q.** And the VNA titer [21]?
**A.** Its VNA titer is greater than 1000 nM.

**Q.** What about the VNA titer (HA of H1N1 A/WSN/33) of the same binder?
**A.** Its VNA titer is 5 nM.

**Q.** And the VNA titer [22]?
**A.** The VNA titer was 32.8 nM.

**Q.** What about the VNA titer [23] of the same binder?
**A.** The VNA titer was 239 nM.

**Q.** What about the VNA titer [24] of the same binder?
**A.** The VNA titer was 40.5 nM.

**Q.** What about the VNA titer [25] of the same binder?
**A.** Its VNA titer is 253 nM.

**Q.** What about the VNA titer (HA of H3N2 A/Perth/16/09) of the same binder?
**A.** Its VNA titer is 253 nM.

**Q.** What about the VNA titer [26] of the same binder?
**A.** Its VNA titer is 105 nM.

**Q.** What about the VNA titer [27] of the same binder?
**A.** Its VNA titer is 503 nM.

**Q.** What about the VNA titer (HA of H7N9 A/Anhui/1/13) of the same binder?
**A.** The VNA titer was 253 nM.

**Q.** And the VNA titer [28]?
**A.** The VNA titer was 33 nM.

**Q.** What about the VNA titer [29] of the same binder?
**A.** Its VNA titer is 102 nM.

**Q.** What about the VNA titer [30] of the same binder?
**A.** Its VNA titer is 275 nM.

**Q.** What about the VNA titer [31] of the same binder?
**A.** The VNA titer was 160 nM.

**Q.** What about the VNA titer [32] of the same binder?
**A.** Its VNA titer is 13.2 nM.

**Q.** What about the VNA titer [33] of the same binder?
**A.** The VNA titer was 359 nM.

**Q.** What about the VNA titer [34] of the same binder?
**A.** Its VNA titer is 700 nM.

**Q.** And the VNA titer [35]?
**A.** The VNA titer was 253 nM.

**Q.** And the VNA titer [36]?
**A.** The VNA titer was 327 nM.

**Q.** And the VNA titer [37]?
**A.** Its VNA titer is 11 nM.

**Q.** And the VNA titer [38]?
**A.** Its VNA titer is 23.2 nM.

**Q.** And the VNA titer [39]?
**A.** Its VNA titer is 53.4 nM.

**Q.** What about the VNA titer [40] of the same binder?
**A.** Its VNA titer is 4.7 nM.

**Q.** And the VNA titer [41]?
**A.** The VNA titer was 15.3 nM.

**Q.** What about the VNA titer [42] of the same binder?
**A.** The VNA titer was greater than 1000 nM.

**Q.** And the VNA titer [43]?
**A.** Its VNA titer is 58.7 nM.

**Q.** What about the Kd (HA of H3N2 A/HK/1/68 [44]) of the same binder?
**A.** The Kd was 44 nM.

**Q.** What about the pIC50 [45] of the same binder?
**A.** The pIC50 was 7.5.
